{"source": "patent US20110008302A1", "about": "“Compositions and methods for immortalizing cells and screening for anti-cancer agents” (priority 2007, published 2011)", "molecules": {"B1": {"name": "EGF: growth factor, R&D systems (protein, UniProt P01133 23-1207, looked up)", "Pro-epidermal growth factor": "PQHWSCPEGTLAGNGNSTCVGPAPFLIFSHGNSIFRIDTEGTNYEQLVVDAGVSVIMDFHYNEKRIYWVDLERQLLQRVFLNGSRQERVCNIEKNVSGMAINWINEEVIWSNQQEGIITVTDMKGNNSHILLSALKYPANVAVDPVERFIFWSSEVAGSLYRADLDGVGVKALLETSEKITAVSLDVLDKRLFWIQYNREGSNSLICSCDYDGGSVHISKHPTQHNLFAMSLFGDRIFYSTWKMKTIWIANKHTGKDMVRINLHSSFVPLGELKVVHPLAQPKAEDDTWEPEQKLCKLRKGNCSSTVCGQDLQSHLCMCAEGYALSRDRKYCEDVNECAFWNHGCTLGCKNTPGSYYCTCPVGFVLLPDGKRCHQLVSCPRNVSECSHDCVLTSEGPLCFCPEGSVLERDGKTCSGCSSPDNGGCSQLCVPLSPVSWECDCFPGYDLQLDEKSCAASGPQPFLLFANSQDIRHMHFDGTDYGTLLSQQMGMVYALDHDPVENKIYFAHTALKWIERANMDGSQRERLIEEGVDVPEGLAVDWIGRRFYWTDRGKSLIGRSDLNGKRSKIITKENISQPRGIAVHPMAKRLFWTDTGINPRIESSSLQGLGRLVIASSDLIWPSGITIDFLTDKLYWCDAKQSVIEMANLDGSKRRRLTQNDVGHPFAVAVFEDYVWFSDWAMPSVMRVNKRTGKDRVRLQGSMLKPSSLVVVHPLAKPGADPCLYQNGGCEHICKKRLGTAWCSCREGFMKASDGKTCLALDGHQLLAGGEVDLKNQVTPLDILSKTRVSEDNITESQHMLVAEIMVSDQDDCAPVGCSMYARCISEGEDATCQCLKGFAGDGKLCSDIDECEMGVPVCPPASSKCINTEGGYVCRCSEGYQGDGIHCLDIDECQLGEHSCGENASCTNTEGGYTCMCAGRLSEPGLICPDSTPPPHLREDDHHYSVRNSDSECPLSHDGYCLHDGVCMYIEALDKYACNCVVGYIGERCQYRDLKWWELRHAGHGQQQKVIVVAVCVVVLVMLLLLSLWGAHYYRTQKLLSKNPKNPYEESSRDVRSRRPADTEDGMSSCPQPWFVVIKEHQDLKNGGQPVAGEDGQAADGSMQPTSWRQEPQLCGMGTEQGCWIPVSSDKGSCPQVMERSFHMPSYGTQTLEGGVEKPHSLLSANPLWQQRALDPPHQMELTQ", "modifications": "Pro-epidermal growth factor", "notes": "growth factor, R&D systems"}}, "test_system": "MEFs", "experiment": "Stimulation of serum-starved MEFs with growth factors or serum (Ezh2, Ndy1, miR-101 levels)", "assay_type": "cell-based, mouse", "conditions": "serum-starved MEFs, 24 hours after stimulation", "method": "MEFs were transfected with control siRNA and stimulated with serum (10%) for 1, 4, 12 and 18 hours. (upper) Nuclear extracts were probed with antibody specific for Ezh2 and for CREB, levels of which served as loading control. (lower) Ndy1 and Ezh2 mRNA levels were measured with real time RT-PCR; GAPDH mRNA levels were used as internal control. Data are expressed as mean±SD.\nSerum starved MEFs were stimulated with each of FGF-2 (20 ng/ml), IGF-1 (20 ng/ml), PDGF (20 ng/ml), serum (10%), VEGF (20 ng/ml), EGF (20 ng/ml) or TNFα (50 ng/ml). Nuclear extracts were probed with antibody specific for Ezh2 and for CREB, levels of which served as loading control.\nData are expressed as mean±SD.\nMEFs transfected with control siRNA were stimulated with FGF-2 for 1, 4, 12 or 18 hours. (upper) Nuclear extracts were probed with antibody specific for Ezh2. CREB levels served as loading control. (middle) Ndy1 and Ezh2 mRNA were measured with real time RT-PCR; GAPDH mRNA levels were used as internal control. Data are expressed as mean±SD. (lower) miR-101 levels were measured with real time RT-PCR; U6 small nuclear RNA levels were used as internal control. Data are expressed as mean±SD. […]"}
{"molecule": "B1", "values": [{"measurement": "level at which Ezh2 expression is induced", "result": "at both the RNA and protein levels"}, {"measurement": "Ezh2 expression", "setting": "20 ng/ml (serum 10%)", "result": "significantly upregulated"}]}
